Data on two molecules can be found in paper doi:10.1101/695700 (bioRxiv, 2019).

First the molecules themselves.
B1: recombinant HC1 (rHC1), wild type; heavy chain 1 of inter-α-inhibitor (natural protein, human, UniProt P19827 35-672, looked up)
chain: SKSSEKRQAVDTAVDGVFIRSLKVNCKVTSRFAHYVVTSQVVNTANEAREVAFDLEIPKTAFISDFAVTADGNAFIGDIKDKVTAWKQYRKAAISGENAGLVRASGRTMEQFTIHLTVNPQSKVTFQLTYEEVLKRNHMQYEIVIKVKPKQLVHHFEIDVDIFEPQGISKLDAQASFLPKELAAQTIKKSFSGKKGHVLFRPTVSQQQSCPTCSTSLLNGHFKVTYDVSRDKICDLLVANNHFAHFFAPQNLTNMNKNVVFVIDISGSMRGQKVKQTKEALLKILGDMQPGDYFDLVLFGTRVQSWKGSLVQASEANLQAAQDFVRGFSLDEATNLNGGLLRGIEILNQVQESLPELSNHASILIMLTDGDPTEGVTDRSQILKNVRNAIRGRFPLYNLGFGHNVDFNFLEVMSMENNGRAQRIYEDHDATQQLQGFYSQVAKPLLVDVDLQYPQDAVLALTQNHHKQYYEGSEIVVAGRIADNKQSSFKADVQAHGEGQEFSITCLVDEEEMKKLLRERGHMLENHVERLWAYLTIQELLAKRMKVDREERANLSSQALQMSLDYGFVTPLTSMSIRGMADQDGLKPTIDKPSEDSPPLEMLGPRRTFVLSALQPSPTHSSSNTQRLPDRVTGVDTD
B2: vitronectin (natural protein, UniProt P04004 20-478, looked up)
chain: DQESCKGRCTEGFNVDKKCQCDELCSYYQSCCTDYTAECKPQVTRGDVFTMPEDEYTVYDDGEEKNNATVHEQVGGPSLTSDLQAQSKGNPEQTPVLKPEEEAPAPEVGASKPEGIDSRPETLHPGRPQPPAEEELCSGKPFDAFTDLKNGSLFAFRGQYCYELDEKAVRPGYPKLIRDVWGIEGPIDAAFTRINCQGKTYLFKGSQYWRFEDGVLDPDYPRNISDGFDGIPDNVDAALALPAHSYSGRERVYFFKGKQYWEYQFQHQPSQEECEGSSLSAVFEHFAMMQRDSWEDIFELLFWGRTSAGTRQPQFISRDWHGVPGQVDAAMAGRIYISGMAPRPSLAKKQRFRHRNRKGYRSQRGHSRGRNQNSRRPSRATWLSLFSSEESNLGANNYDDYRMDWLVPATCEPIQSVFFFSGDKYYRVNLRTRRVDTVDPPYPRSIAQYWLGCPAPGHL

Series [1] deals with the molecule itself. The series can be described thus: AUC.
Series [2] concerns the molecule itself. The series can be described thus: AUC. This is another data set of the same source.
The target of series [3] is B1. The series can be described thus: SPR. For orientation: Surface plasmon resonance follows binding to a sensor surface in real time, without labels.

As a reminder, the Kd is the concentration at which binding is half-saturated. One may read the stoichiometry N as the number of molecules, sites or subunits per partner or assembly. Molecule B1 displayed a Kd in series [1] of 35.3 µM. In series [2], the “stoichiometry N” value amounted to 2.

With B2, the Kd in series [3] is ~0.0002 µM.
